Paper PMC12359043, “Chemical crosslinking extends and complements UV crosslinking in analysis of RNA/DNA nucleic acid–protein interaction sites by mass spectrometry”

Molecular target: NELF complex WT (NELF-A/B/C-D/E) (human, UniProt Q9H3P2;Q8WX92;Q8IXH7;P18615 1-528;49-628;1-590;1-380)
Assay: fluorescence anisotropy; NELF-TAR complex: 20 mM HEPES/NaOH pH 7.4, 150 mM NaCl, 10% glycerol, 1 mM DTT, mixed 30 min at 4 C; anisotropy conditions only by reference [29]; Hsh49-Cus1-U2 reconstituted 30 min on ice; Dnmt2 dialysed in 50 mM HEPES pH 7.5, 150 mM NaCl, 2 mM DTT
Settings: protein: recombinant; copies: 1;1;1;1; hairpin

NELF complex WT (NELF-A/B/C-D/E), sequence (Q9H3P2 whole entry, chain 1 of 4): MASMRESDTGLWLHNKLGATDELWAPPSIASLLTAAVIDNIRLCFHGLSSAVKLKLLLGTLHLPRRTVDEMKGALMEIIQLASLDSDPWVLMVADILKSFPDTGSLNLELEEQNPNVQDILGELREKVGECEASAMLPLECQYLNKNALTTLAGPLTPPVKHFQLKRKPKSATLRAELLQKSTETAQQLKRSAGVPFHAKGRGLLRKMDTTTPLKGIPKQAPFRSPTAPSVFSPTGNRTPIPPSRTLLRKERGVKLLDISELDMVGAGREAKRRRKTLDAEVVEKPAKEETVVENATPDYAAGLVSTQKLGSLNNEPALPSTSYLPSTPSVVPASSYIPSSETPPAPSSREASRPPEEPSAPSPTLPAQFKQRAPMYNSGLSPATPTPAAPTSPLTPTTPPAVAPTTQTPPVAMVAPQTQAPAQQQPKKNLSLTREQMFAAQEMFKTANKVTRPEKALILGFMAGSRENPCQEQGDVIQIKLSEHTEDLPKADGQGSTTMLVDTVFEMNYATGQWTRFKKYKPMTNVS
NELF complex WT (NELF-A/B/C-D/E), sequence (Q8WX92 whole entry, chain 2 of 4): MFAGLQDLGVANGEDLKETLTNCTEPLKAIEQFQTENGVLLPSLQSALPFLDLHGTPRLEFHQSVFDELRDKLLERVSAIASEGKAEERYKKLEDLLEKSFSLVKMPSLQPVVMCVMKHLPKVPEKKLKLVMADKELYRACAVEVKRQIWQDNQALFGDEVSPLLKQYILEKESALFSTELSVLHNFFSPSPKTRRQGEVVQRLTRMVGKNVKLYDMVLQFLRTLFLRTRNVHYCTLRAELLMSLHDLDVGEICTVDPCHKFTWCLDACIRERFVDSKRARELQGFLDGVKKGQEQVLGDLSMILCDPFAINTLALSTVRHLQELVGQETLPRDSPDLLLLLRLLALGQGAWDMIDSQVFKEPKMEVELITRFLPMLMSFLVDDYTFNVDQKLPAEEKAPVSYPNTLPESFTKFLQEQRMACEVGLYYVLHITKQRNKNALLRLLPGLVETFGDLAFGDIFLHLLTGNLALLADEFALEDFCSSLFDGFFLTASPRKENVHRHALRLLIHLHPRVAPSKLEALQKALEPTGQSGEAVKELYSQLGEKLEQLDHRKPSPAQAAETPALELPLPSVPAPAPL
NELF complex WT (NELF-A/B/C-D/E), sequence (Q8IXH7 whole entry, chain 3 of 4): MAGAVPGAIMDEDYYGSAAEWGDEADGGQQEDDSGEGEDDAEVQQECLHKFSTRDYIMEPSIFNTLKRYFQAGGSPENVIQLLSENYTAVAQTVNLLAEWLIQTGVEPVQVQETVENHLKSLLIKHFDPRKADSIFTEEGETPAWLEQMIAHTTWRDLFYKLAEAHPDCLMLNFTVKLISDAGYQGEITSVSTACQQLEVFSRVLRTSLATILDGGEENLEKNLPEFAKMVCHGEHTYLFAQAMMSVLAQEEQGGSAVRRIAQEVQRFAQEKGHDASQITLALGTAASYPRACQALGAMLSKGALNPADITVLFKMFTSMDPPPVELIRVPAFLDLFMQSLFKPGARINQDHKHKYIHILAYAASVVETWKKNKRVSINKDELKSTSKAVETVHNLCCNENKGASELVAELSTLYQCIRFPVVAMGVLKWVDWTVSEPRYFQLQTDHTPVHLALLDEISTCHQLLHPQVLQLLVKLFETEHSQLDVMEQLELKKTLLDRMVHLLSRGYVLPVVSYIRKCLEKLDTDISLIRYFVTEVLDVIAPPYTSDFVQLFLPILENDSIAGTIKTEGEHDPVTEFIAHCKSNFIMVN
NELF complex WT (NELF-A/B/C-D/E), sequence (P18615 whole entry, chain 4 of 4): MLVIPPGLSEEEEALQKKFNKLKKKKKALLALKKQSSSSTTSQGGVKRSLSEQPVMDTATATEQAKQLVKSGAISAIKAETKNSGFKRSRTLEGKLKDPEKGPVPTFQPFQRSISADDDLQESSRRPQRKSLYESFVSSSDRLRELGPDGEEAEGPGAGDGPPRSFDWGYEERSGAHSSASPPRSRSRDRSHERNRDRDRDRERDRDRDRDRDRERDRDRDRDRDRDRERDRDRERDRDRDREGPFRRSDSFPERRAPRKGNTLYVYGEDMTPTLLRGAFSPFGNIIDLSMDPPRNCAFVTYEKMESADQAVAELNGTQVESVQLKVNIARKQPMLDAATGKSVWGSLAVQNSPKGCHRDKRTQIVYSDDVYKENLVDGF

CCAGAUCUGAGCCUGGGAGCUCUCUGG (structured_RNA) [HIV-1 TAR stem-loop RNA]: binds.
